Experimental data from US20240158521A1 (WISTAR INSTITUTE OF ANATOMY AND BIOLOGY, published 2024).

B1: PB01-reverse (bispecific antibody)
chain: EVQLVESGGGLVQPGGSLRLSCAASGFSLTKYGVHWVRQAPGKGLEWVGVKWAGGSTDYNSALMSRFTISKDNAKNSLYLQMNSLRAEDTAVYYCARDHRDAMDYWGQGTLVTVSSGGGGSGGGGSGGGGSDIQMTQSPSSLSASVGDRVTITCTASLSVSSTYLHWYQQKPGSSPKLWIYSTSNLASGVPSRFSGSGSGTSYTLTISSLQPEDFATYYCHQYHRSPLTFGGGTKVEIKGGGGSDIQMTQSPSSLSASVGDRVTITCRASQDIRNYLNWYQQKPGKAPKLLIYYTSRLESGVPSRFSGSGSGTDYTLTISSLQPEDFATYYCQQGNTLPWTFGQGTKVEIKSGGGGSGGGGSGGGGSEVQLVESGGGLVQPGGSLRLSCAASGYSFTGYTMNWVRQAPGKGLEWVALINPYKGVSTYNQKFKDRFTISVDKSKNTAYLQMNSLRAEDTAVYYCARSGYYGDSDWYFDVWGQGTLVTVSS
B2: PB01-forward (bispecific antibody)
chain: DIQMTQSPSSLSASVGDRVTITCTASLSVSSTYLHWYQQKPGSSPKLWIYSTSNLASGVPSRFSGSGSGTSYTLTISSLQPEDFATYYCHQYHRSPLTFGGGTKVEIKGGGGSGGGGSGGGGSEVQLVESGGGLVQPGGSLRLSCAASGFSLTKYGVHWVRQAPGKGLEWVGVKWAGGSTDYNSALMSRFTISKDNAKNSLYLQMNSLRAEDTAVYYCARDHRDAMDYWGQGTLVTVSSGGGGSEVQLVESGGGLVQPGGSLRLSCAASGYSFTGYTMNWVRQAPGKGLEWVALINPYKGVSTYNQKFKDRFTISVDKSKNTAYLQMNSLRAEDTAVYYCARSGYYGDSDWYFDVWGQGTLVTVSSGGGGSGGGGSGGGGSDIQMTQSPSSLSASVGDRVTITCRASQDIRNYLNWYQQKPGKAPKLLIYYTSRLESGVPSRFSGSGSGTDYTLTISSLQPEDFATYYCQQGNTLPWTFGQGTKVEIKS
notes: Single-chain bispecific T cell engager, VL-VH-VH-VL format: humanized anti-IL13Rα2 scFv fused by GS linker to a modified UCHT1 anti-CD3 scFv; Tested as Expi293F transfection supernatant and as a recombinant purified version, detected with anti-His tag antibody; also called PB07-2134
B3: PB02-reverse (bispecific antibody)
chain: EVQLVESGGGLVQPGGSLRLSCAASGFTFSRNGMSWVRQAPGKGLEWVATVSSGGSYIYYADSVKGRFTISRDNAKNSLYLQMNSLRAEDTAVYYCARQGTTALATRFFDVWGQGTLVTVSSGGGGSGGGGSGGGGSDIQMTQSPSSLSASVGDRVTITCKASQDVGTAVAWYQQKPGKAPKLLIYSASYRSTGVPSRFSGSGSGTDFTLTISSLQPEDFATYYCQHHYSAPWTFGGGTKVEIKGGGGSDIQMTQSPSSLSASVGDRVTITCRASQDIRNYLNWYQQKPGKAPKLLIYYTSRLESGVPSRFSGSGSGTDYTLTISSLQPEDFATYYCQQGNTLPWTFGQGTKVEIKSGGGGSGGGGSGGGGSEVQLVESGGGLVQPGGSLRLSCAASGYSFTGYTMNWVRQAPGKGLEWVALINPYKGVSTYNQKFKDRFTISVDKSKNTAYLQMNSLRAEDTAVYYCARSGYYGDSDWYFDVWGQGTLVTVSS
notes: Single-chain bispecific T cell engager, VH-VL-VL-VH format: second humanized anti-IL13Rα2 clone fused by GS linker to a modified UCHT1 anti-CD3 scFv; Tested as Expi293F supernatant and as a recombinant purified version; also called PB08-1243
B4: PB02-forward (bispecific antibody)
chain: DIQMTQSPSSLSASVGDRVTITCKASQDVGTAVAWYQQKPGKAPKLLIYSASYRSTGVPSRFSGSGSGTDFTLTISSLQPEDFATYYCQHHYSAPWTFGGGTKVEIKGGGGSGGGGSGGGGSEVQLVESGGGLVQPGGSLRLSCAASGFTFSRNGMSWVRQAPGKGLEWVATVSSGGSYIYYADSVKGRFTISRDNAKNSLYLQMNSLRAEDTAVYYCARQGTTALATRFFDVWGQGTLVTVSSGGGGSEVQLVESGGGLVQPGGSLRLSCAASGYSFTGYTMNWVRQAPGKGLEWVALINPYKGVSTYNQKFKDRFTISVDKSKNTAYLQMNSLRAEDTAVYYCARSGYYGDSDWYFDVWGQGTLVTVSSGGGGSGGGGSGGGGSDIQMTQSPSSLSASVGDRVTITCRASQDIRNYLNWYQQKPGKAPKLLIYYTSRLESGVPSRFSGSGSGTDYTLTISSLQPEDFATYYCQQGNTLPWTFGQGTKVEIKS
notes: Single-chain bispecific T cell engager, VL-VH-VH-VL format: second humanized anti-IL13Rα2 clone fused by GS linker to a modified UCHT1 anti-CD3 scFv; Tested as Expi293F supernatant and as a recombinant purified version; also called PB08-2134

Legend:
[1] = molecular target: T1, IL13Rα2 expressed on tumor cells (U87, U373, U251) (UniProt Q14627 27-380, limits assumed); assay: cell-based or functional assay
T1 sequence (looked up): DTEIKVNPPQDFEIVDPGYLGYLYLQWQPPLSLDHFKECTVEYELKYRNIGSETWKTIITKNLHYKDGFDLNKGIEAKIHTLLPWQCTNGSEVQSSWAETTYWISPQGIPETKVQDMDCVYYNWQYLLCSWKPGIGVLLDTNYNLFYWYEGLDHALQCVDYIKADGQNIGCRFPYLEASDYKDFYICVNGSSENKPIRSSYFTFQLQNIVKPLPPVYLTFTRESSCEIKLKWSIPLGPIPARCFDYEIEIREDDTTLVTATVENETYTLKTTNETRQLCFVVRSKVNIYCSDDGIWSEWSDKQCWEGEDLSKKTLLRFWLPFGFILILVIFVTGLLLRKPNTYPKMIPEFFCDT

[2] = molecular target: T2, recombinant IL13Rα2 (Sino biological) (UniProt Q14627 27-343, limits assumed); assay: binding ELISA, recombinant purified BTE on coated recombinant IL13Rα2
T2 construct: Bought protein; construct not described
T2 sequence (looked up): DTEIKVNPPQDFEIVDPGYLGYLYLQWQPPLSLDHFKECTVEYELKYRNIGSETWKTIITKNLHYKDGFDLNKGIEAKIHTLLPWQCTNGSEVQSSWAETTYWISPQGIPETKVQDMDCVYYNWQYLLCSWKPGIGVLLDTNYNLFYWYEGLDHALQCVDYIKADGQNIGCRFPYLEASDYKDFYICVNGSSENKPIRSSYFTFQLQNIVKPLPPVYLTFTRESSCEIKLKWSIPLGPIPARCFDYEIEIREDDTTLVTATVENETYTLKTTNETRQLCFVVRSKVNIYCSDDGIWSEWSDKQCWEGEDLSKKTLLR
Method: (§1) ELISA plates were coated with either IL13Rα2/IL13Rα1 (Sino biological, […]) or CD3 (Acrobiosystems, 1 μg/ml) overnight at 4C. Blocking was performed with PBST-10% FBS for 1 hour. As primary antibody, supernatants from Expi293F cells transfected with dBTEs was used or pVax as negative control at different dilutions. The cells were incubated at room temperature for 1 hour. Secondary antibody was a goat anti-human fab fragment specific HRP conjugated (Jackson immunoresearch). After 1 hour incubation the blots were developed with TMB solution and read OD at 450 nm. To determine binding kinetics, recombinant BTEs were used at indicated concentrations as primary antibody, and HRP conjugated anti-His tag antibody (Biolegend) or goat anti-mouse fab fragment specific antibody as secondary antibody.

[3] = molecular target: T3, recombinant CD3 protein (Acrobiosystems) (UniProt P07766 23-126); assay: ELISA
T3 chain: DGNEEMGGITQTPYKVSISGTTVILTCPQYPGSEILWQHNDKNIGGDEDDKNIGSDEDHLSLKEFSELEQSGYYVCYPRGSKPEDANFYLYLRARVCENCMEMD

[4] = molecular target: T4, IL13Rα1 expressed on tumor cells (UniProt P78552 22-427, limits assumed); assay: binding to tumor cells (method not given)
T4 construct: whole, on cells
T4 sequence (looked up): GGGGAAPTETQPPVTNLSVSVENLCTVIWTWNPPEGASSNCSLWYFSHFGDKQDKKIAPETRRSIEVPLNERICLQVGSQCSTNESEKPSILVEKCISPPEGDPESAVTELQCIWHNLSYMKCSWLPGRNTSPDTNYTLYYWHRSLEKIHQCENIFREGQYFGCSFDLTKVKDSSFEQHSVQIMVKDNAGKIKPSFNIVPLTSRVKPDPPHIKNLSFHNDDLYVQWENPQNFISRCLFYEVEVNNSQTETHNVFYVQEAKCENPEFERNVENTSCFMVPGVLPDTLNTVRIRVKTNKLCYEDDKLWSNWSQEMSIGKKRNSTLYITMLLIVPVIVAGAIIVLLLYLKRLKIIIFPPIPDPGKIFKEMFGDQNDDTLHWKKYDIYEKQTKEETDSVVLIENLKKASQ

[5] = molecular target: T5, recombinant IL13Rα1 (Sino biological) (UniProt P78552 22-343, limits assumed); assay: binding ELISA, plate coated with IL13Rα1, Expi293F supernatant
T5 construct: Bought protein; construct not described
T5 sequence (looked up): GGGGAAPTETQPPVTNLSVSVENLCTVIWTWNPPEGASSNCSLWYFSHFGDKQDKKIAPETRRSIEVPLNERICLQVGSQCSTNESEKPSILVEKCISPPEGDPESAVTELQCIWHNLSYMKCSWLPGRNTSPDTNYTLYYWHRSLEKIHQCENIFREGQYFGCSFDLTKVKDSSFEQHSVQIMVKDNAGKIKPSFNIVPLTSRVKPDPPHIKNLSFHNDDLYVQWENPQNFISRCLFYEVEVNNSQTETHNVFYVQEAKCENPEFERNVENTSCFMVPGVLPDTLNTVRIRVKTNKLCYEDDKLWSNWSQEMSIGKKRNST
Method: as §1

[6] = molecular target: T6, recombinant IL13Rα2 (Sino biological) (UniProt Q14627 27-343); assay: ELISA
T6 chain: T2 sequence (looked up)

Row | Binder | EC50 of killing of U87-GFP-Luc cells, 48h luciferase killing assay with recombinant BTE and primary human T cells [1] | IC50 [2] | IC50 [3] | binding result [4] | binding result [5] | IC50 [6]
1 | B1 | ~0.1 ng/mL |  |  |  |  | 
2 | B2 | ~0.1 ng/mL | 21.2 ng/mL |  |  |  | 
3 | B3 | ~0.1 ng/mL |  | 0.41 ng/mL | no binding | no binding | 9.3 ng/mL
4 | B4 | ~0.1 ng/mL | 4.2 ng/mL | 11.2 ng/mL | no binding | no binding | 
